From article doi:10.1101/2022.05.05.490853 (bioRxiv, 2022)
Where a chain is given by its changes, count along the chain named.

B1: recombinant monoclonal antibody 1D11 (re-cloned, second most abundant VH and VL) (antibody, V domains shown)
VH: QSLVESGGGLVQPEGSLTLTCKASGFSFSSGYDMCWVRQAPGKGLEYIACIDAGDDITHYASWVKGRFTVSKTSSTTVTLQLNSLTVADTATYFCGRFWDLWGPGTLVTVSS
VL: SSVLTQTPSPVSAAVGGTVTINCQSSQSVYDSTWLGWYQQKPGQPPKLLIYKASNLASGVPSRFKGSGSGTHFTLTISDLECDDAATYYCVGGYSGSVDNWAFGGGTEVVVK
B2: recombinant monoclonal antibody 15E2 (antibody, V domains shown)
VH: QSLEESGGGLFKPTDTLTLTCTVSGIDLSSYAMIWVRQAPGKGLEWIGYIWSSGRIWYASWAKGRFTISRTSTTVDLKLASPTTEDTATYFCARLWDIWGPGTLVTVSS
VL: AQVLTQTPSSVSAAVGGTVTISCQASQSLYNGVNLAWYQQKPGQPPKLLIFGASNLESGVSSRFRGSGSGTQFTLTISGVQCDDAATYYCLGEFSCSSADCLAFGGGTEVVVK
B3: recombinant monoclonal antibody 17A8 (antibody, V domains shown)
VH: QSVEESGGRLVTPGTPLTLTCTVSGFPLSSYSMAWVRQAPGKGLEYIGFINTDGSAYYASWAKGRITISKTSTTVELKITSPTTEDTATYFCGTGNIWGPGTLVTVSS
VL: AQVLTQTPSSVSAAVGGTVTINCQASQSVSNNNVLAWFQQKPGQPPKRLIYSALTLDSGVPSRFKGSGSGTHFTLTISGVQCDDAATYYCAGGYDCSSNDCIAFGGGTEVVVK
B4: recombinant monoclonal antibody 28D3 (antibody, V domains shown)
VH: B3 VH with P27S, A34G, F49M, N51I, T52S, D53N, G54N, A56T
VL: B3 VL with S9A, V29T, V34A, A103T
B5: antibody in the supernatant of B cell line 1D11 (antibody, V domains shown)
VH: B1 VH
VL: B1 VL
B6: antibody in the supernatant of B cell line 15E2 (antibody, V domains shown)
VH: B2 VH
VL: B2 VL
B7: antibody in the supernatant of B cell line 17A8 (antibody, V domains shown)
VH: B3 VH
VL: B3 VL
B8: antibody in the supernatant of B cell line 28D3 (antibody, V domains shown)
VH: B3 VH with P27S, A34G, F49M, N51I, T52S, D53N, G54N, A56T
VL: B3 VL with S9A, V29T, V34A, A103T

These binders were tested against T1, recombinant VlsE protein (vlsE cassette region of B. burgdorferi B31-5A3) (Borreliella burgdorferi B31, clone …, UniProt O06878) (assay: ELISA).

| Binder | binding result |
| --- | --- |
| B1 | binds |
| B2 | binds |
| B3 | binds |
| B4 | binds |

Target: T1, recombinant VlsE protein (vlsE cassette …)
Experiment: ELISA
Remark: another data set of the same source

| Binder | binding result |
| --- | --- |
| B5 | binds |
| B6 | binds |
| B7 | binds |
| B8 | binds |
